Biological target: adeno-associated virus serotype 3B (AAV-3B) capsid protein subunit (adeno-associated virus serotype 3B)
Test: crystal structure

“adeno-associated virus serotype 3B (AAV-3B) capsid protein subunit (natural protein)” showed a stoichiometry N of 60.

From PMC2885149
